According to publication PMC10382551, “Affinity-matured homotypic interactions induce spectrum of PfCSP structures that influence protection from malaria infection” (Nature Communications, 2023):
Ends that are not written are not given here.

T1: NPNA4 peptide (Plasmodium falciparum (isolate 3D7)., not fully specified)
T1 construct: source: synthetic peptide (InnoPep Inc, purity >=97%)
T1 chain: NPNANPNANPNANPNA

T2: NPNA8 peptide (Plasmodium falciparum (isolate 3D7)., not fully specified)
T2 construct: source: synthetic peptide (InnoPep Inc, purity >=97%)
T2 chain: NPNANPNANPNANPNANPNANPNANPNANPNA

T3: NPNA4 peptide, biotinylated at the C-terminus (BLI) (Plasmodium falciparum (isolate 3D7).)
T3 construct: source: synthetic peptide (InnoPep Inc)
T3 chain: NPNANPNANPNANPNA-biotin

T4: NPNA8 peptide (used for cryo-EM with Fab 227) (Plasmodium falciparum, not fully specified)
T4 construct: source: synthetic peptide (InnoPep Inc)
T4 chain: T2 chain

B1: 311R Fab (Fab, V domains shown)
VH: QVQLVESGGGVVPPGRSLRLSCATSGFTFSSYGMHWVRQAPGKGLEWVAIIWYDGSNKFYAASVKGRFTISRDNSKNTLYLQMNSLRVEDTAVYYCARAAYYDTSGYGDYWGQGTLVTVSS
VL: QSVLTQPPSVSGAPGQTVTISCTGGSSNIGAGYDVHWYQQLPGTAPKLLIYGNINRPSGVPDRFSGSKSGTSASLAITGLQAEDEADYYCQSYDSSLSGSWVFGGGTKLTVL
notes: also called Fab311R; germline-reverted 311; source: ExpiCHO cells, purified (mAb Select PrismA or Capture Select, SEC)
B2: Fab 239R, germline-reverted mutant of 239 (Fab, V domains shown)
VH: QVQLVESGGGVVQPGRSLRLSCAASRLTFSSYGMHWVRQTPGKGLEWVAVIWHDGSNKFYADSVKGRFTISRDNSKNTLYLQMNSLRDEDTAIYYCAKDWGGASDRVFDYWGRGTLVIVSS
VL: DIQMTQSPSTLSASVGDRVTITCRASQSVSTSLAWYQQKPGKAPNLLIYQASTLYTGVPSRFSGSGSGTEFTLTIGSLQPDDFATYYCQHYNSYSRITFGQGTRLEIK
notes: source: ExpiCHO cells, purified (mAb Select PrismA or Capture Select, SEC)
B3: 239R Fab (Fab, V domains shown)
VH: B2 VH
VL: B2 VL
notes: also called Fab239R; 239 FabR; source: ExpiCHO cells, purified (mAb Select PrismA or Capture Select, SEC)
B4: Fab 356R, germline-reverted mutant of 356 (Fab, V domains shown)
VH: QVQLVESGGGVVQPGRSLRLSCAASGFTFSSYGMHWVRQTPGKGLEWVAVIWHDGSNKFYADSVKGRFTISRDNSKNMIYLQMNSLRVEDTAIYYCARDSLFYDHDNSGYYGYWGQGTLVTVSS
VL: EIVMTQSPATVSVSPGERATLSCRASQSVTSKLAWYQQKPGQAPRLLIYGASTRATGIPARFSGSGSGTEFTLTISSLQSEDFAVYFCQQYNNGFTFGPGTKVDFK
notes: as for B2
B5: Fab of mAb 227 (Fab, V domains shown)
VH: QVQLVQSGGGVVQPGRSLRLSCVTSGFTFPAFGMHWVRQAPGKGLEWVAVIWYDGSKKYYADSVRGRFTISRDNSRNTLYLQMHSLRAEDTAVYYCARVKNYESSGYSQCLDYWGQGVLVTVAS
VL: QSVLTQPPSVSGAPGQRVTISCTGSSSNIGAGYDVHWYQQLPGTAPKLLIYGNGNRPSGVPDRFSGSKSGTSVSLAITGLQAEDEADYYCQSYDSSLSAFVFGTGTKVTVL
notes: also called 227 Fab; source: ExpiCHO cells, purified (mAb Select PrismA or Capture Select, SEC)

Columns and labels:
Conditions in all cases: both partners purified
NPNA4 peptide = target: T1, NPNA4 peptide; assay: BLI
NPNA8 peptide = target: T2, NPNA8 peptide; assay: BLI
[1] = target: T3, NPNA4 peptide, biotinylated at the …; assay: BLI
[2] = target: T4, NPNA8 peptide (used for cryo-EM with …); assay: cryo-EM structure; saturating amounts of Fab incubated with rsCSP (or NPNA8 for Fab 227) overnight at 4 °C, complex purified by SEC (Superose 6 Increase, TBS), single particle cryo-EM
[3] = target: T4, NPNA8 peptide (used for cryo-EM with …); assay: as above

Binder	Kd (NPNA4 peptide) [nM]	Kd (NPNA8 peptide) [nM]	further results
B1	131	401	
B2			fold change of apparent affinity against 239 [1]: ~2 fold
B3	165	205	
B4			fold change of apparent affinity against 356 [1]: ~2 fold
B5			stoichiometry N [2]: 4 Fabs per NPNA8 disc; stoichiometry N [3]: 8 Fabs bound
